Experimental data taken from patent publication US20050214772, “Thio modified aptamer synthetic methods and compositions” (Board Of Regents, The University Of Texas System, published 2005).

Tests used:
[1] = target: NF-IL6 (C/EBPbeta) tryptic core domain bZIP (TCD) (UniProt P17676); assay: FP; conditions: Kobs, direct titration, normal phosphate backbone
c-Rel homodimer [2] = target: T1, c-Rel homodimer (UniProt Q04864 Q04864:2-619); assay: EMSA; single-copy site behaves similarly to CK-1; conditions: chain copies: 2 (stated)
T1 sequence: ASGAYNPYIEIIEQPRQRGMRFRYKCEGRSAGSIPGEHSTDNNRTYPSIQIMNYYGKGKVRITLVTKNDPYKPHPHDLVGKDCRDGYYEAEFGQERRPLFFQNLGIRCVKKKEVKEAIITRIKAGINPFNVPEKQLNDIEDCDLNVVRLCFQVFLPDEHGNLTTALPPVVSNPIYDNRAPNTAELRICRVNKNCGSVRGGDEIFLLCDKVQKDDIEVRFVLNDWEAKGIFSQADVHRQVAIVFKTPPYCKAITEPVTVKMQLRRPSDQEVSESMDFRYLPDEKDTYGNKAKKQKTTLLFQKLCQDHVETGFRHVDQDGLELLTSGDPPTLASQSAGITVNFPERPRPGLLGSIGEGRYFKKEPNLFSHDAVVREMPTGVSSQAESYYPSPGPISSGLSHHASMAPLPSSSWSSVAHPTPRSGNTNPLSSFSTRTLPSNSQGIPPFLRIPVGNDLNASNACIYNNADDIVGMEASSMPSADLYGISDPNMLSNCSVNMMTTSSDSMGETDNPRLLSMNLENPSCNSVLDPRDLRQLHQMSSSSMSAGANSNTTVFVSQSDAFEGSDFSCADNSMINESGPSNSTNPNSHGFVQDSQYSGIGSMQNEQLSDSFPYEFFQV

NF-kB p50 homodimer [3] = target: T2, NF-kB p50 homodimer (UniProt P19838 P19838:1-433); assay: EMSA; competition with 32P-IgkB; specificity lost on full thiolation; conditions: chain copies: 2 (stated)
Method: In standard competitive binding assays, ³²P-IgκB promoter element ODN duplex was incubated with recombinant p50 or p65 and competitor oligonucleotide (A) phosphodiester CK-1; (B) phosphorothioate CK-1. The reactions were then run on a nondenaturing polyacrylamide gel, and the amount of radioactivity bound to protein and shifted in the gel was quantitated by direct counting. […] It is the recognition that [S]-ODNs with large numbers of phosphorothioate linkages are “sticky” and tend to bind with poor specificity to proteins that led to one of the embodiments of the present invention. Using the method disclosed herein it was determined that if the number of phosphorothioate linkages is reduced to only 2-4, specificity can be restored, but binding is not enhanced.

c-Rel homodimer [4] = target: T1, c-Rel homodimer; assay: EMSA; binds and competes; conditions: chain copies: 2 (stated)
NF-kB p50 homodimer [5] = target: T2, NF-kB p50 homodimer; assay: EMSA; full monothiolation loses specificity; conditions: chain copies: 2 (stated)
NF-kB p50 homodimer [6] = target: T2, NF-kB p50 homodimer; assay: EMSA; labeled probe in competition assays; conditions: chain copies: 2 (stated); label: 32P

T2 sequence (P19838 1-433, one chain of several): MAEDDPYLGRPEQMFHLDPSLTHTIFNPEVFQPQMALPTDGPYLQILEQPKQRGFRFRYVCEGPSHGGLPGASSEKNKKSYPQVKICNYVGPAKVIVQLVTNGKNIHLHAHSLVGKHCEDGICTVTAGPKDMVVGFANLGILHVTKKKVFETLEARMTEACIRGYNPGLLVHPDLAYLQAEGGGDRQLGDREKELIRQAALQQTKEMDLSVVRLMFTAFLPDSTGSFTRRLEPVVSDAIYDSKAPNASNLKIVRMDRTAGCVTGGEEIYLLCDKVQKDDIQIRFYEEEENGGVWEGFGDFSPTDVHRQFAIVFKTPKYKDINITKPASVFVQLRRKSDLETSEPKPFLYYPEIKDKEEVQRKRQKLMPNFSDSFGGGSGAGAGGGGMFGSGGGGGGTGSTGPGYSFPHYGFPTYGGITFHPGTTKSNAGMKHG
Sequence of NF-IL6 (C/EBPbeta) tryptic core domain bZIP (TCD) (P17676 266-345): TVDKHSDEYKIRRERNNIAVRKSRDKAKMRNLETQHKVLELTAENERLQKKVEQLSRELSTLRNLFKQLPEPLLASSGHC

For “TGCAGATTGCGCAATCTGCA (double strand) [C/EBPbeta palindromic 20-mer]”, the Kd [1] was 10 nM.

B1: CK-14 phosphodiester duplex (dsDNA)
DNA 1: CCAGGAGATTCCAC
DNA 2: GTGGAATCTCCTGG
B1: binds (c-Rel homodimer [2]).

B2: CK-1 phosphorothioate duplex (dsDNA)
DNA 1: CCAGGAGATTCCACCCAGGAGATTCCACCCAGGAGATTCCAC
DNA 2: GTGGAATCTCCTGGGTGGAATCTCCTGGGTGGAATCTCCTGG
modifications: PS all linkages
B2: binds (NF-kB p50 homodimer [3]).

B3: CK-1 42-mer phosphodiester duplex (dsDNA)
DNA 1: B2 DNA 1
DNA 2: B2 DNA 2
B3: binds (c-Rel homodimer [4]).

B4: CK-14 fully monothiolated duplex (dsDNA)
DNA 1: CCAGGAGATTCCAC
DNA 2: GTGGAATCTCCTGG
modifications: PS all linkages
B4: binds (NF-kB p50 homodimer [5]).

B5: IgkB promoter element 22-mer (dsDNA)
DNA 1: AGTTGAGGGGACTTTCCCAGGC
DNA 2: GCCTGGGAAAGTCCCCTCAACT
B5: binds (NF-kB p50 homodimer [6]).
